Laboratory results from patent publication US20020076693A1, “Novel cell surface receptor for HIV retroviruses, therapeutic and diagnostic uses” (priority 1997, published 2002).
Where two headings read alike, the source gives them in different places. Values belong to the substance of their own block, whether it stands above or below them.

Legend:
[1] = target: P95/nucleolin (human) (UniProt P19338); assay: cell-based or functional assay
[2] = target: purified preparation of the V3 loop-BPs (P95/nucleolin, P40/PHAP II, P30/PHAP I) (human) (UniProt P19338); assay: BIAcore, V3 loop-BPs immobilized on CM5
[3] = target: purified preparation of the V3 loop-BPs (P95/nucleolin, P40/PHAP II, P30/PHAP I) (human) (UniProt P19338); assay: BIAcore, V3-BPs; row shifted one column to the left
[4] = target: purified preparation of the V3 loop-BPs (P95/nucleolin, P40/PHAP II, P30/PHAP I) (human) (UniProt P19338); assay: inhibition of gp120 binding to the V3 loop-BPs; competitor gp120
[5] = target: P95/nucleolin (human) (UniProt P19338); assay: FACS on CEM cells with biotin-labeled construct; target printed as TASP-ligand
[6] = target: P95/nucleolin (human) (UniProt P19338); assay: competition: 50 µM unlabeled 5[KPR]-TASP against 5 µM biotin-labeled 5[Kψ(CH2N)PR]-TASP on CEM cells
[7] = target: purified preparation of the V3 loop-BPs (P95/nucleolin, P40/PHAP II, P30/PHAP I) (human) (UniProt P19338)
[8] = target: CD4 (cellular, CEM and MOLT4 cells) (human) (UniProt P01730); assay: cell-based or functional assay
[9] = target: CD4 (cellular, CEM and MOLT4 cells) (human) (UniProt P01730); assay: FACS on MOLT4 cells, no protease
[10] = target: CD4 (cellular, CEM and MOLT4 cells) (human) (UniProt P01730); assay: FACS on MOLT4 cells after trypsin
[11] = target: CD4 (cellular, CEM and MOLT4 cells) (human) (UniProt P01730); assay: FACS on MOLT4 cells after pronase E
[12] = target: CD4 (cellular, CEM and MOLT4 cells) (human) (UniProt P01730); assay: FACS on MOLT4 cells after proteinase K
[13] = target: purified preparation of the V3 loop-BPs (P95/nucleolin, P40/PHAP II, P30/PHAP I) (human) (UniProt P19338); assay: BIAcore, purified V3-BPs
[14] = target: CD26 (on MOLT4 cells) (human) (UniProt P27487); assay: FACS on MOLT4 cells, no protease
[15] = target: CD26 (on MOLT4 cells) (human) (UniProt P27487); assay: FACS on MOLT4 cells after trypsin
[16] = target: CD26 (on MOLT4 cells) (human) (UniProt P27487); assay: FACS on MOLT4 cells after pronase E
[17] = target: CD26 (on MOLT4 cells) (human) (UniProt P27487); assay: FACS on MOLT4 cells after proteinase K
[18] = target: purified preparation of the V3 loop-BPs (P95/nucleolin, P40/PHAP II, P30/PHAP I) (human) (UniProt P19338); assay: BIAcore, V3-BPs
[19] = target: P30/PHAP I (human) (UniProt P39687); assay: saturation of the binding sites, method not stated
[20] = target: P40/PHAP II (human) (UniProt Q01105); assay: saturation of the binding sites, method not stated
[21] = target: P95/nucleolin (human) (UniProt P19338); assay: saturation of the binding sites, method not stated
[22] = target: P95/nucleolin (human) (UniProt P19338); assay: FACS on MOLT4 cells, no protease; target TASP-Ligand [sic]
[23] = target: P95/nucleolin (human) (UniProt P19338); assay: FACS on MOLT4 cells after trypsin; target TASP-Ligand [sic]
[24] = target: P95/nucleolin (human) (UniProt P19338); assay: FACS on MOLT4 cells after pronase E; target TASP-Ligand [sic]
[25] = target: P95/nucleolin (human) (UniProt P19338); assay: FACS on MOLT4 cells after proteinase K; target TASP-Ligand [sic]
[26] = target: purified preparation of the V3 loop-BPs (P95/nucleolin, P40/PHAP II, P30/PHAP I) (human) (UniProt P19338); assay: BIAcore, V3 loop-BPs
[27] = target: purified preparation of the V3 loop-BPs (P95/nucleolin, P40/PHAP II, P30/PHAP I) (human) (UniProt P19338); remark: listed apart in the source
[28] = target: recombinant soluble CD4 (UniProt P01730); assay: BIAcore, soluble CD4; row shifted one column to the left
[29] = target: recombinant gp120 of HIV-1 Lai (IIIB) (HIV-1 Lai (IIIB)) (UniProt P03377); assay: cell-based or functional assay

Chain of P95/nucleolin (human) (P19338 2-710 limits assumed): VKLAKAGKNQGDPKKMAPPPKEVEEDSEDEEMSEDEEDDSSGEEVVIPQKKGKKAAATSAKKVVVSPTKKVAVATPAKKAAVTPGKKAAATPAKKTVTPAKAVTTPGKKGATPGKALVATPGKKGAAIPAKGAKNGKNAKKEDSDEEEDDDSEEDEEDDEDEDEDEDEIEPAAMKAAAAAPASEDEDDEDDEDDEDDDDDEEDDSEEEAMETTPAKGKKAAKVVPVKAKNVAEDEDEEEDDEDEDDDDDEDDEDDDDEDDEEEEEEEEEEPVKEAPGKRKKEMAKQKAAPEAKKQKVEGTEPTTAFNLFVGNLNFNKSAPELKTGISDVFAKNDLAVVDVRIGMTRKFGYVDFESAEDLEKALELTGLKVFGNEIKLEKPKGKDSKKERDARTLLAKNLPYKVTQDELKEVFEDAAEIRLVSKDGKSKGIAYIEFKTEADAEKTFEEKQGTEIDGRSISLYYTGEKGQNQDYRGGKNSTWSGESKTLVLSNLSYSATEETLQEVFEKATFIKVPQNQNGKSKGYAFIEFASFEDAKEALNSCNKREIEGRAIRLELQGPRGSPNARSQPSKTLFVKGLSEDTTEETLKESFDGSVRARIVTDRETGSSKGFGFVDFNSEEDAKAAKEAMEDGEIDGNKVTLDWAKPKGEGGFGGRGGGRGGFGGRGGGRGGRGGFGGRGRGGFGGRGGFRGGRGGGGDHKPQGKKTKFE
Chain of P40/PHAP II (human) (Q01105 other isoform, or with tags, fused parts or gaps limits assumed): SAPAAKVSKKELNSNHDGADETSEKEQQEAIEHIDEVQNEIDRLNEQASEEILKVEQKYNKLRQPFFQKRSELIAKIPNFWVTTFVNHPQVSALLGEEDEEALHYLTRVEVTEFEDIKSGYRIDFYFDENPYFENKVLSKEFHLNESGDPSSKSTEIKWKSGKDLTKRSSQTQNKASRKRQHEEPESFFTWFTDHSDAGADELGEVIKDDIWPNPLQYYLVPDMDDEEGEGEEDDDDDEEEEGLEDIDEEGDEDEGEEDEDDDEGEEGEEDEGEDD

Substance: 5[KPR]-TASP (peptide)
Inhibition of HIV infection (IC50), HIV-1 in CEM cells, p24 at 4 days [1]: 5000 nM
Ka [2]: 1.5e+08 M⁻¹
koff [2]: 0.0024 s⁻¹
kon [2]: 350000 M⁻¹ s⁻¹
Ka [3]: 1.5e+08 M⁻¹
koff [3]: 0.0024 s⁻¹
kon [3]: 350000 M⁻¹ s⁻¹
IC50 [4]: 300 nM
EC50 [5]: 3500 nM
% of P95 recovery abolished [6]: 40 to 50%

Substance: mAb OKT4A (antibody)
ELISA OD 450 nm [7]: 0.2 OD 450 nm
inhibition of binding of HIV-1 particles to CEM cells (p24 in cell lysates) [8]: 75%
% positive cells [9]: 100%
% positive cells [10]: 24%
% positive cells [11]: 9%
% positive cells [12]: 6%

Substance: synthetic V3 loop peptide of HIV-1 Lai
Ka [13]: 5.1e+06 M⁻¹
fold affinity against the V3 loop of the macrophage-tropic isolate [13]: > 3 fold

% positive cells [14]: 100%
% positive cells [15]: 100%
% positive cells [16]: 97%
% positive cells [17]: 98%
Substance: mAb Ta1 (antibody)

Substance: 5[Kψ(CH2N)PR]-TASP (peptide)
Ka [18]: 9.61e+09 M⁻¹
IC50 of HIV entry (β-galactosidase), HeLa P4, HIV-1 Lai [1]: 500 nM
IC50 of HIV entry (β-galactosidase), HeLa P4-C5, HIV-1 Bal [1]: 800 nM
IC50 of HIV entry (β-galactosidase), HeLa P4-C5, HIV-1 UGO29A [1]: 300 nM
IC50 of HIV entry (β-galactosidase), HeLa P4-C5, HIV-2 ROD [1]: 400 nM
Inhibition of HIV infection (IC50), HIV-1 in CEM cells, p24 at 4 days [1]: 500 nM
Ka [2]: 9.61e+09 M⁻¹
concentration giving 100% saturation of the binding sites [19]: 8 µM
concentration giving 100% saturation of the binding sites [20]: 4 µM
concentration giving 100% saturation of the binding sites [21]: 2 µM
% positive cells [22]: 100%
% positive cells [23]: 92%
% positive cells [24]: 8%
% positive cells [25]: 15%
EC50 [5]: 150 nM

Substance: nonglycosylated gp120 of HIV-1 SF2 (Env 2-3) (from UniProt P03378 32-509) (ligand)
fold reduction of affinity against glycosylated gp120 SF2 [26]: 10 fold
Ka [2]: 1.6e+08 M⁻¹
koff [2]: 0.0024 s⁻¹
kon [2]: 380000 M⁻¹ s⁻¹
Ka [3]: 1.6e+08 M⁻¹
koff [3]: 0.0024 s⁻¹
kon [3]: 380000 M⁻¹ s⁻¹

Substance: recombinant gp120 of HIV-1 MN (from UniProt P05877 32-513) (ligand)
Ka [2]: 4.3e+08 M⁻¹
koff [2]: 0.00044 s⁻¹
kon [2]: 190000 M⁻¹ s⁻¹
Ka [3]: 4.3e+08 M⁻¹
koff [3]: 0.00044 s⁻¹
kon [3]: 190000 M⁻¹ s⁻¹

Substance: synthetic V3 loop peptide of HIV-1 Ba-L
Ka [13]: 1.5e+06 M⁻¹

Substance: recombinant gp120 of HIV-1 Lai (IIIB) (from UniProt P03377 33-516) (ligand)
IC50 [27]: 3 nM
Ka [2]: 2.1e+08 M⁻¹
koff [2]: 0.0021 s⁻¹
kon [2]: 440000 M⁻¹ s⁻¹
Ka [3]: 2.1e+08 M⁻¹
koff [3]: 0.0021 s⁻¹
kon [3]: 440000 M⁻¹ s⁻¹

Substance: recombinant gp120 of HIV-1 SF2 (from UniProt P03378 32-509) (ligand)
Ka [2]: 2.32e+09 M⁻¹
koff [2]: 2.8e-05 s⁻¹
kon [2]: 65000 M⁻¹ s⁻¹
Ka [3]: 2.32e+09 M⁻¹
koff [3]: 3e-05 s⁻¹
kon [3]: 65000 M⁻¹ s⁻¹

Substance: recombinant gp120 of HIV-1 Lai (IIIB) (from UniProt P03377 33-516) (ligand; other documents disagree on this pair)
Ka [28]: 1.08e+09 M⁻¹
koff [28]: 0.0545 s⁻¹
kon [28]: 588000 M⁻¹ s⁻¹

Substance: 5[Kψ(CH2N)PR]-TASP with dehydroxyproline in place of proline (peptide)
IC50 of HIV entry (β-galactosidase), HeLa P4, HIV-1 Lai [1]: 100 nM
IC50 of HIV entry (β-galactosidase), HeLa P4-C5, HIV-1 89.6 [1]: 300 nM
IC50 of HIV entry (β-galactosidase), HeLa P4-C5, HIV-1 Bal [1]: 300 nM
IC50 of HIV entry (β-galactosidase), HeLa P4-C5, HIV-1 JRCSF [1]: 300 nM
IC50 of HIV entry (β-galactosidase), HeLa P4-C5, HIV-1 Lai [1]: 100 nM
IC50 of HIV entry (β-galactosidase), HeLa P4-C5, HIV-2 CBL [1]: 2000 nM
IC50 of HIV entry (β-galactosidase), HeLa P4-C5, HIV-2 ROD [1]: 200 nM

Substance: purified preparation of the V3 loop-BPs (P95/nucleolin, P40/PHAP II, P30/PHAP I) (from UniProt P19338 2-710; Q01105 2-277; P39687 1-249)
inhibition of HIV-1 Lai infection of CEM cells, multiple cycles, p24 at 5 days, 10 µg/ml [29]: 91%
inhibition of single cycle HIV-1 infection of CEM cells [29]: > 80%
